Experiment: yeast display, Sf9 membrane polyspecificity reagent, FACS + sequencing; frameworks hold sequencing errors
How it was run: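 Genes from sorted yeast were amplified by colony PCR, read by MiSeq 2 × 250 sequencing and filtered on CDR length. These cells carried a synthetic nanobody library in Saccharomyces cerevisiae BJ5465 and were sorted by FACS into low and high (top ~1%) gates on anti-HA and streptavidin fluorescence. Polyreactivity is labelled according to the gate of origin.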

Sequence	polyreactivity (PSR sort gate)
QVQLVESGGGLVQAGGSLRLSCAASGITFSSNTRGCYRQATGNETELVAAISSSGGSTYYADSVKGRFTISRDNAKNTFYLQINSLKPEDTAVYYCNTVRFRGWVWWEYDYWGQGTQVTVSS	high polyreactivity
QVQLVESGGGLVQAGGSLRLSCAASGITFSSYAMGWSRQAPGKERELVAAISSGGSTYYADSVKGRFTISRDNAKNTVYLQMNSLKPEDTAVYYCRPLVTLDWYKFGYWGQGTQVTVSS	low polyreactivity
QVQLVESGGGLVQAGGSLRLSCAASGITFSSYTMGWYRQAPGKERELVAVISSGGSTNYADSVKGRFTISRDNAKNTVYLQMNSLKPEETAVYYCAARRSKYIPYYGKWYYRAFDYWGQGTQVSVSS	high polyreactivity
QVQLVESGGGLVQAGGSLRLSCAASGITFSSYTMGWYRQARGKERELVAAISRTGGSTYYADSVKGRFTISRDNAKNTVYLQMNSLIPEDTAVYYCAARVAGRTLSGGDYWGQGTQVTVSS	high polyreactivity
QVQLVESGGGLVQAGGSLRLSCAASGITFSSYVMGWYRQAPGKERELDAAISRSGGITYYADSVKGRFTISRDNAKNTVYLQMNSLKPEDTAVYYCAVRYYIYRPGGYDYWGQGTQVTVSS	high polyreactivity
QVQLVESGGGLVQAGGSLRLSCAASGITFSVYAMGWYRQAPRKERELVASISSGGTSTYYADSVKGRFTISRDNAKNTVYLQMNSLKPEDTPVYYCAAYSYYTRDPYSYDYWGQGTQVTVSS	low polyreactivity
QVQLVESGGGLVQAGGSLRLSCAASGITFSYYAMGWYRQAPGKERELVAAISRTGTSTYYADSVKGRFTISRDNAKNTVYLQMNSLKPEDTAVYYCAARYYYWGQGTQVTVSS	high polyreactivity
QVQLVESGGGLVQAGGSLRLSCAASGITFSYYAMGWYRQAPGKERELVAAISWSGGTTYYADSVKGRFTISRDNAKNTVYLQMNSLKPEDTAVYYCAADGGAVGSDYWGQGTQVTVSS	high polyreactivity
QVQLVESGGGLVQAGGSLRLSCAASGITFSYYAMGWYRQAPGKERELVAAISYTSGSTYYADSVKGRFTISRDNAKNTVYLQMNSLKPEDTAGYYCAARSRWSKQFRYDYWGQGTQVTVSS	high polyreactivity
QVQLVESGGGLVQAGGSLRLSCAASGITFSYYAMGWYRQAPGKERELVATIRSSGGSTYYADSVKGRFTISRDNAKNTVYLQMNSLKPEDTAVYYCAVRLWFDYNYWGQGTQVTVSS	low polyreactivity
QVQLVESGGGLVQAGGSLRLSCAASGITFSYYTLGWYRQAPGKERELFARINSGGTTNYADSVKGRFTISRDNAKNTVYLQMNSLKPEDTAVYYCAAEWVSWRWAHKFDYWGQGTQVTVSS	high polyreactivity
QVQLVESGGGLVQAGGSLRLSCAASGITFTGYAMGWYRPAPGKERELGAAITWSSGSTYYADSVKGRFTISRDNAKNTVYLQMNSLKPEDTAVYYCAAEVNVGTLLLSVIVEDGDYWGQGTQVTVSS	low polyreactivity
QVQLVESGGGLVQAGGSLRLSCAASGITFTGYAMGWYRQAPGKERELVAAISVSTVSTYYADSVKGRFTISRDNAKNTDYLQMTSLKPEDTAVYYCNADATDSYPEKDEHDSWGQGTQVTVSS	low polyreactivity
QVQLVESGGGLVQAGGSLRLSCAASGITFTGYAMGWYRQAPGKERELVAVISETGGSTYADSVKGRFTISRDNAKNTVYLQMNSLKPEDTAVYYCAADPHDTVRHDALVELEYWGQGTQVTVSS	low polyreactivity
QVQLVESGGGLVQAGGSLRLSCAASGITFTGYAMGWYRQAPGKERELVAVISETGGSTYADSVKGRFTISRDNAKNTVYLQMNSLKREDTAVYYCAARLWWPYSTAWAKMDYWGQGTQVTVSS	low polyreactivity
QVQLVESGGGLVQAGGSLRLSCAASGITFTRYAMGWYRQAPGKEREFVAAIRRSGGNTYYADSVKGRFTISRDNAKNNVYLQRNSLKPEESAVYYCPASFRKTSPTRLVDYWGLGTQVTVSS	low polyreactivity
QVQLVESGGGLVQAGGSLRLSCAASGITFTSYVMGWYRQAPGKERELVAAIRWSGGRTYYADSVKGRFTISRDNAKITVYLQMNSLKPEDTAVYYCNRVTRSHVDYWGQGTQVTLSS	high polyreactivity
QVQLVESGGGLVQAGGSLRLSCAASGITFTVYAMGWYRQAPGKERELVAAITSTGSTNYADSVKGRSTISRDNAKNTVYLQMNSLKPEDTAVYYCAADRQITVYAYDYWGQGTQVTVSS	low polyreactivity
QVQLVESGGGLVQAGGSLRLSCAASGITFTYYVMGWYRQAPGKERELVAAISSGGRTYYADSVKGRFTISRDNAKNTVYLEMNSLKPEDTAVYYCNADQYLRYFGRYYRSGEYWGQGTQVTVSS	high polyreactivity
QVQLVESGGGLVQAGGSLRLSCAASGITFVFYAMGWYRQAPGKERELVATISYRGTSTYYADSVKGRFTISRDNAKNTVYLQMNSLKPEDTAVYYCAADTYIYYKTGYGYWGQGTQVTVSS	low polyreactivity
QVQLVESGGGLVQAGGSLRLSCAASGITFVFYTMGWYRQAPGKERELVAAIARSGASTYYADSVKGRFTLSRDNAKNTVYLQMNSLKPEDTALYYGAADRGYRFRMDYWGQGTQVTVSS	high polyreactivity
QVQLVESGGGLVQAGGSLRLSCAASGITFVFYTMGWYRQAPGKETELVAAISRSGASTYYADSVKGRFTISRDNAKNTVYLQMNSLKPEDTAVYYCAADRGYRFRMDYWGQGTQVTVST	high polyreactivity

Sequence	polyreactivity (PSR sort gate)
QVQLVESGGGLVQAGGSLRLSCAASGITFVGNAMGWYRQAPGKERELVAVISRGDSTNYADSVKGRFTISRDNAKNTVYLQMNSLKPEDTAVYYCAADGSRAGQEGNDYCGQGTQVTVSS	low polyreactivity
QVQLVESGGGLVQAGGSLRLSCAASGITFVGNARGWYRQAPGKERELVAGIRGNGGSTYYADSVKGRFTISRDNAKNTVYLQMNSLKPEDTAVYYCAAAAYYADFDYWGQGTQVTVSS	low polyreactivity
QVQLVESGGGLVQAGGSLRLSCAASGITFVHYAMGWYRQAPGKERELVAAITVGDGGTYYADSVKGRFTISRDNAKNTVYLQMNSLKPEDTAVYYCAAGFYSYSWYVKLAYGYWGQGIQVTVSS	low polyreactivity
QVQLVESGGGLVQAGGSLRLSCAASGITFVLYAMGWYRQAPGKEREFVAAITNSGGSTYYADSVKGRFTISRDNAKNTVYLQMNSLKPEDTAVYYCAATRRRYRPYEYWGQGTQVTVSS	high polyreactivity
QVQLVESGGGLVQAGGSLRLSCAASGITFVLYAMGWYRQAPGKERELVAAITWRGGSTYYADSVKGRFTISRDNAKNTVYLQMNSLKPEDTAVYYCAAVPFTSYRQGDYWGQGTQVTVSS	low polyreactivity
QVQLVESGGGLVQAGGSLRLSCAASGITFVPNAMGWYRQAPGKERELVAAINNGGSTYYADSVKGRFTISRDNAKNTVYLQMNSLKPEDTAVYYCAAVSLSTVRGYYYWGQGTQVTVSS	low polyreactivity
QVQLVESGGGLVQAGGSLRLSCAASGITFVQYAMGWYRQAPGKERELVAAITSDGRTYYADSVKGRFTISRDNAKNTVYLQMNSLKPEDTAVYYCAADVWRYTAYGGAYRRDYWGQGTQVTVSS	low polyreactivity
QVQLVESGGGLVQAGGSLRLSCAASGITFVRNAMGWYRQAPGKEREFVAAISGSGVSTYADSVKGRFTISRDNAKNTVYLQMNSLKPEDTAVYYCARDFPWSYAWYDYWGQGTQVTVSS	low polyreactivity
QVQLVESGGGLVQAGGSLRLSCAASGITFVRYAMGWYRQAPGKERELVAAIRQNGGDTYYADSVKRRFTISRDNAKNTDYLQMNSLKPEDTAVYYCNARMRGAGGYTYYYWGQGTQVTVSS	high polyreactivity
QVQLVESGGGLVQAGGSLRLSCAASGITFVRYAMGWYRQAPGKERELVAVISRGGITNYADSVKGRFTISRDNAKNTVYLQMNSLKPEDTAVYYCAVRGRSYVRTYDYWGQGTQVTVSS	high polyreactivity
QVQLVESGGGLVQAGGSLRLSCAASGITFWFYAMGWYRQAPGKERELVADITSGGSTYYADSVKGLFTISRDNAKNTVYLQMNSLKPEDTAVYYCAADSWDSLAGLWDWNGPYYYWGQGTQVTVSS	low polyreactivity
QVQLVESGGGLVQAGGSLRLSCAASGITFWSYAMGWYRQAPGKERELVAAISRGGDSTYYADSVKGRFTISRDNAKNTVYLQMNSLKPEDTAVYYCAALRKREEYYWGQGTQVTVSS	high polyreactivity
QVQLVESGGGLVQAGGSLRLSCAASGITFWYYAMGWYRQAPGKERELVAAISSSGGRTTYADSVKGRFTISRDNAKNTVYLQMNSLKPEDTAVYYCATTYGDRYVTAYDYWGQGTQVTVSS	high polyreactivity
QVQLVESGGGLVQAGGSLRLSCAASGITFYAYAIGWYRQAPGKERELVAAITSSGGNTYYADSVKGRFTISRDNAKNTVYLQMKSLKPEDTAVYYCNIRRYWWWQMGYWGQGTQVTVSS	high polyreactivity
QVQLVESGGGLVQAGGSLRLSCAASGITFYDYAMGWYRQAPGKERELVAAISGGGITYYADSVKGRFTISRDNAKNTVYLQMNSLKPEDTAVYYCAADAYGYGGDSWGQGTQVTVSS	low polyreactivity
QVQLVESGGGLVQAGGSLRLSCAASGITFYEYAMGWYRQAPGKERELVAAISTSGGNTYYADSVKGRFTISRDNAKNTVYLQMKSLKPEDTAVYYCAAQGTASSYSGGDYWGQGTQVTVSS	low polyreactivity
QVQLVESGGGLVQAGGSLRLSCAASGITFYEYAMGWYRQAPGKERELVATITSGGNTNYADSVKGRFTISRDNAKNTVYLQMNSLKPEDTAVYFCATRPYGYSCNRPYDYWGQGTQVTVSS	low polyreactivity
QVQLVESGGGLVQAGGSLRLSCAASGITFYFNAMGWYRQAPGKERELVAAISFSGGGTYYADSVKGRFTISRDNAKNTVYLQMTSLKPEDTAVYYCNADYGRGTLRSIYDYWGQGTQVTVSS	low polyreactivity
QVQLVESGGGLVQAGGSLRLSCAASGITFYFYAMGWYRQAPGKERELVAAITRGGRTNYADSVKGRFTISRDNAKNTVYLQMNSLKPEDTAVYYCNKRLYSYYPGKYVAEYDYWGQGTQVTVSS	high polyreactivity
QVQLVESGGGLVQAGGSLRLSCAASGITFYFYTMGWYRQAPGKERELVAAISRGGGSTYYADSVKGRFTISRDNAKNTVYLQMNSLKPEDTAVYYCAADYKPHYYHDDYWGQGTQVTVSS	low polyreactivity
QVQLVESGGGLVQAGGSLRLSCAASGITFYGYAMGWYRHAPGKERELVATISSGGGTNYADSVKGRFTISRDNAKNTVYLQMNSLKPEDSAVYYCATDLSTVDYNYWGQGTQVTVSS	low polyreactivity

— the nanobody polyreactivity screen of Harvey et al. (2022)
